Assay: soluble on expression in E. coli; label from the status in PepcDB or PDB records

| Sequence | soluble on expression in E. coli |
| --- | --- |
| MAHHHHHHMSEARQIQSMIDFIEREAQEKADELNSAAQEEYDVEKMRLVEAEKVKVRANNEQKLKQVDVGRRVARANFSKAQRLRIMEAQSNIVEQLKENIKTKLMAFVKNTDSYKKLLVSILHEALSAVRTDAIVYTCKNDEPIVTGMLSELEQWYLKTVGTRVSIRMGKEYLNAEEALGGVVVKSHDGHIVCNWTLSSRMRNCVNDQLPTIRYYLFNPESSI | not soluble |
| MGSHHHHHHDITSLYKKAGSAAAVLEENLYFGGSFTMANVNKTPGKTRRAEVAGGGFAGLTAAIALKQNGWDVRLHEKSSELRAFGAGIYLWHNGLRVLEGLGALDDVLQGSHTPPTYETWMHNKSVSKETFNGLPWRIMTRSHLHDALVNRARALGVDISVNSEAVAADPVGRLTLQTGEVLEADLIVGADGVGSKVRDSIGFKQDRWVSKDGLIRLIVPRMKKELGHGEWDNTIDMWNFWPRVQRILYSPCNENELYLGLMAPAADPRGSSVPIDLEVWVEMFPFLEPCLIEAAKLKTARYDKYETTKLDSWTRGKVALVGDAAHAMCPALAQGAGCAMVNAFSLSQDLEEGSSVEDALVAWETRIRPITDRCQALSGDYAANRSLSKGNMFTPAALEAARYDPLRRVYSWPQ | soluble |
| MHHHHHHKSTKILILGAGPAGFSAAKAALGKCDDITMINSEKYLPYYRPRLNEIIAKNKSIDDILIKKNDWYEKNNIKVITSEFATSIDPNNKLVTLKSGEKIKYEKLIIASGSIANKIKVPHADEIFSLYSYDDALKIKDECKNKGKAFIIGGGILGIELAQAIIDSGTPASIGIILEYPLERQLDRDGGLFLKDKLDRLGIKIYTNSNFEEMGDLIRSSCVITAVGVKPNLDFIKDTEIASKRGILVNDHMETSIKDIYACGDVAEFYGKNPGLINIANKQGEVAGLNACGEDASYSEIIPSPILKVSGISIISCGDIENNKPSKVFRSTQEDKYIVCMLKENKIDAAAVIGDVSLGTKLKKAIDSSKSFDNISSLDAILNNL | soluble |
| MPLPYDKEKKLWKVTGWYLESSEETGEVMQSKQIAFEGYTNEENFANRQRVSVFKSFYESGNLKSIYHYNAQNKRDGKAETYFDEKDKIAETLTFKDGQPEGEYIVYHENGAVESKRYFAQGKIKDGECPHFYDNGVLKQKHSYLNQKLEGPAFEYFPDGKIKGKYSYSKGTIVGTSTEYYSTGKIRGVYHRNNQGENDGTFEQYSEEGKLLSKATYKNGKQLSAQSWYENGHPKEESSFDSEGRKHGAVKEWFSNGKPASSKMYKHDVLDGDFEKWYENGHRESVYPYKNGMLNGDAKHWNEQGKLTYTTEYKDDKKQGADRRWSERTGKLVEEVMFANDERNGLKREFNDRTGKVLSALPYVDGDKEGTEEAYDEDGIKYIRCYHNDEELSELYAPTDVTNKAKQGDSTAQYHLGKYEFECTNYDAAMKWLTQSAEQNHPGALLFLAYAYNDGDGVAQDSKKYLSYLFKAAELGESDAQLEVGYLNLIGEGMPKNLPEAYKWIKKSADQGNAQAHYNLGLMYRNGDGVEKDLNKAKLHLTAAVKGGVKPALAALKELTPQTKLEHHHHHH | not soluble |
| MLNRIIEHMNAHHVEDMKGLLKKFGQVHHAENVAFKSVDSQGIVIGYNNNQTLRIEFNHEVKDPKDYKNATIELCQSVEKTHDLKGVEEEVKAFKEGFDSVCLATLHPNGHVVCSYAPLMSDGKQYYIYVSEVAEHFAGLKNNPHNVEVMFLEDESKAKSAILRKRLRYKTNTRFIERGAEFDKAFDSFIEKTGGAGGIKTIRAMQDFHLIALDFKEGRFVKGFGQAYDILGDKIAYVGDKGNPHNFAHKKLEHHHHHH | soluble |
| MSLNFDFAENDFRPLAARMRPRTLDEYCGQQHLIGQGKPLRRAIESGHAHSMILWGPPGTGKTTLAEIIAYRINAEVERLSAVTSGVKDIREAIERAKRNRLADRQTILFVDEVHRFNKSQQDAFLPHIEDGTIIFIGATTENPSFELNNALLSRTRVYILKSLTTADVQRVLQQAVADEERGLGKARLNLQANLLHLLAEYVNGDARLALNCLELMADMAEEDENGKKIDRTLLTEVLGERQARFDKGGDRFYDLISAVHKSIRGSAPDAALYWYARIITAGGDPLYVARRLLAIASEDIGNADPRAMQVALSAWDCFTRVGAAEGERAIAQAIVYLAVAPKSNAVYQAFNAAKALAKQAPDYDVPRHLTNAPTQLLKELGNHAEYRYAHDEPNAYAAGENYFPEPLKDTRFYFPGARGMEIKIKEKLDWLRNLDQQSENIREGHHHHHH | not soluble |

From the DeepSol protein solubility set
